Data on two proteins can be found in publication PMC9708914 (iScience, 2022).

The data set “crystal structure” concerns the molecule itself. Kind of data set: crystal structure.
The data set “cross-linking” concerns the molecule itself. Description: cross-linking.

B1: Thermus thermophilus MgtE transmembrane (TM) domain (TtMgtE 268-450) (domain or fragment, UniProt Q5SMG8 268-450, looked up)
chain: VPDLVYSEAGPVALWLARVRWLVILILTGMVTSSILQGFESVLEAVTALAFYVPVLLGTGGNTGNQSATLIIRALATRDLDLRDWRRVFLKEMGVGLLLGLTLSFLLVGKVYWDGHPLLLPVVGVSLVLIVFFANLVGAMLPFLLRRLGVDPALVSNPLVATLSDVTGLLIYLSVARLLLEAV
Consider B1, for which, in the data set “crystal structure”, the binding result was “binds”.

B2: MgtE ΔN T336C/L421C (TtMgtE 130-450, T336C/L421C) (domain or fragment, Thermus thermophilus, UniProt Q5SMG8 130-450, looked up)
chain: EEDEAGGLMTPEYVAVREGMTVEEVLRFLRRAAPDAETIYYIYVVDEKGRLKGVLSLRDLIVADPRTRVAEIMNPKVVYVRTDTDQEEVARLMADYDFTVLPVVDEEGRLVGIVTVDDVLDVLEAEATEDIHKLGAVDVPDLVYSEAGPVALWLARVRWLVILILTGMVTSSILQGFESVLEAVTALAFYVPVLLGTGGNTGNQSACLIIRALATRDLDLRDWRRVFLKEMGVGLLLGLTLSFLLVGKVYWDGHPLLLPVVGVSLVLIVFFANLVGAMLPFLLRRLGVDPACVSNPLVATLSDVTGLLIYLSVARLLLEAV
B2: the stoichiometry N (usually the number of molecules, sites or subunits per partner or assembly) in the data set “cross-linking” was 2.
